The values below come from paper PMC3469102, “^64Cu-NODAGA-c(RGDyK) Is a Promising New Angiogenesis PET Tracer: Correlation between Tumor Uptake and Integrin α V β 3 Expression in Human Neuroendocrine Tumor Xenografts” (International Journal of Molecular Imaging, 2012).

Like-named read-outs stand apart in the source and are kept apart here.

One data set in a line: in vitro. The class given is in vitro ADME, nude mice. The conditions noted are these: nude, mouse, plasma. As for the experimental part:
The product (Figure 1) was used without further purification. HPLC analysis was performed with a Jupiter column, 4u Proteo 90A, 250 × 4.6 mm (Phenomenex, Torrance, CA, USA) and flow 1.5 mL/min. The HPLC mobile phase was solvent A, 0.1% trifluoroacetic acid in water, and solvent B, 0.1% trifluoroacetic acid in acetonitrile. Gradient: 0–2 min 15% B, 2–7 min 15–40% B, and 7–10 min 40–15% B. […] Plasma was mixed with equal amounts of acetonitrile after incubation. The resulting mixture was centrifugated and the supernatant was collected and filtered.

On the set-up of data set [1]: species or system mice. To be noted: mouse, in vivo. As for the experimental part: Dose Assessment/EXponential Modeling software (OLINDA/EXM; Vanderbilt University, Nashville, TN, USA). To ensure a conservative estimate, the urinary elimination fraction was set to 75% with voiding intervals of 5 hours. The effective dose for both adult male and female were then calculated using OLINDA/EXM.

A short description of the next data set: in vivo. To be noted: nude, mouse, iv, 1.6 MBq, total radioactivity. Here is the method: A longitudinal dynamic study was performed scanning a mouse at 1, 2, and 18 hours after intravenous injection of 1.6 MBq ^64Cu-NODAGA-c(RGDyK), allowing dynamic information of the tracer biodistribution in tumors as well as in the other organs of interest. The PET scans were performed using a small animal PET scanner (MicroPET Focus 120, Siemens Medical Solutions, Knoxville, TN, USA). The energy window for the emission PET scans was set to 350–650 keV and the time resolution was 6 ns. Scan time was 10 min.
The acquired data for emission scan was stored in list-mode format and postprocessed to obtain 2 bytes 128 × 144 × 32 sinograms. Finally, the emission sinograms were reconstructed using MAP Algorithms and resulted into 4-byte 256 × 256 × 95 image sets with a zoom factor of 1.443 and a voxel size of 0.87 × 0.87 × 0.79 mm^3. Furthermore, the emission sinograms were corrected for dead time and decay time. Scatter and attenuation corrections were not applied to the emission data. The system was calibrated to provide activity concentrations as Bq/cc.
The small animal CT scans of the mouse parallel with the PET scans were acquired using a small animal computed tomography (microCAT II, Siemens Medical Solutions). The acquisition time of each CT scan was 6.5 minutes generating 360 projections at 360° arc. The X-ray source settings were 75 kVp, 500 μA, and 270 ms for the voltage, the current, and the exposure time, respectively. The CT projections on the 3,000 × 2,970 CCD crystal were binned by 4 to increase sensitivity and reduce the dataset size. The projections were reconstructed by real-time reconstruction algorithm (the COBRA toolbox) using Shepp-Logan filter into 768 × 768 × 512 matrix with a voxel size of 0.092 × 0.092 × 0.092 mm^3.
The fusion of the PET and CT images was performed manually using the ASIPro Toolbox (Siemens Medical Solutions). Also the analyses of PET images were performed in the ASIPro toolbox.
The measurement of the activity uptake in the tumors and the organs were estimated by manually outlining on CT images. […] The 3D ROIs of the organs were then applied on the corresponding PET images. The results of these ROIs acquired the concentration of the tracer in the organs expressed in percentage of the injected dose per gram tissue (%ID/g).

A short description of data set [2]: Biodistribution (gamma counting) in mice with H727 xenografts. To be noted: female, NMRI nude, mouse, in vivo, iv, 2 MBq, total radioactivity. As for the experimental part:
(§1) Female NMRI (Naval Medical Research Institute) nude mice (6 weeks upon arrival) were acquired from Taconic Europe, Lille Skensved, Denmark. The mice were acclimated one week in the animal facilities before taken into experiments. […] […] Hypnorm^R (Janssen Pharmaceutica NV, Beerse, Belgium)/Dormicum^R (Roche, Basel, Switzerland). Tumors were then grown for 3-4 weeks (average tumor volume 210 mm^3). Animal care and experimental procedures were performed under the approval of the Danish Animal Welfare Council (2006/561-1124). Tumor bearing mice were anesthetized with 3% sevoflurane (Abbott Scandinavia AB, Solna, Sweden) mixed with 35% O2 in N2. […] Mice were sacrificed by neck drawing and tumors, organs (liver, kidneys, lung, spleen, heart, intestine, and muscle) and blood were collected, weighted, and radioactivity measured in a gamma counter (2480 Wizard^2, Perkin Elmer, MA, USA). Tumors were immediately placed in tubes containing RNAlater^R (Ambion Inc., TX, USA), stored overnight at 4°C, RNAlater^R then removed, and tumors stored at -80°C until total RNA extraction and further QPCR experiments were performed. […] (0.97 ± 0.03, 0.64 ± 0.04, 0.65 ± 0.04, and 0.62 ± 0.04) and decreasing further at 18 h p.i.

For data set [3], the system named is human neuroendocrine tumor xenografts (H727). Described as above. To be noted: female, NMRI nude, mouse, in vivo, iv, 2 MBq, 18 h. Here is the method: as §1
The next data set relates to U87MG xenograft tumors. To be noted: in vivo; cited from earlier work. As for the experimental part:
The cyclic RGD peptides c(RGDfK) and […] have frequently been used for radiolabeling. c(RGDfK), cyclo [Arg-Gly-Asp-D-Phe-Lys] only differs from c(RGDyK), cyclo [Arg-Gly-Asp-D-Tyr-Lys], in one amino acid, D-Phenylalanine (D-Phe) instead of D-tyrosine (D-Tyr). D-Tyr is more hydrophilic than D-Phe and c(RGDyK) has therefore been reported as preferable due to faster renal excretion. In our study we found a faster decrease of radioactivity in kidneys, intestine, and liver from 1 to 18 h (2.2 to 0.5, 1.6 to 0.4, and 1.1 to 0.4%ID/g) than that reported for ^64Cu-NODAGA-c(RGDfK) in the sam ... || NODAGA-c(RGDy/fK) has been labeled with ^68Ga and NODAGA-c(RGDfK) also with ^64Cu. One paper compared ^68Ga- and ^64Cu-NODAGA-c(RGDfK) and found the highest tracer uptake using ^68Ga-NODAGA-c(RGDfK) compared to ^64Cu-NODAGA-c(RGDfK) (5.2 versus 3.8%ID/g, 1 h p.i. in highly angiogenic U87MG xenograft tumors) but also 3 times higher tumor-to-blood ratio [12]. We found similar T/B ratio (12.7) after 1 hour using ^64Cu-NODAGA-c(RGDyK) as they did with ^64Cu-NODAGA-c(RGDfK). The advantage of ^64Cu labeling is the possibility of delayed imaging up to 12 or 18 h post ...

As for `N=C(N)NCCC[C@@H]1NC(=O)[C@H](CCCCNC(=O)CCC(C(=O)O)N2CCN(CC(=O)O)CCN(CC(=O)O)CC2)NC(=O)[C@@H](Cc2ccc(O)cc2)NC(=O)[C@H](CC(=O)O)NC(=O)CNC1=O` (stereo partly drawn) [^64Cu-NODAGA-c(RGDyK), metal not drawn], in the data set “in vitro”, the share remaining at 24 h, 20 MBq/mL turned out to be 88%. Moreover, in data set [1], the “Residence time, Heart” value came out at 3.54E − 03 Bq ∗ h/Bq; the “Residence time, Kidneys” value came out at 2.10E − 01 Bq ∗ h/Bq; the “Residence time, Liver” value came out at 3.00E − 01 Bq ∗ h/Bq; the “Residence time, Lungs” value was found to be 1.29E − 02 Bq ∗ h/Bq. Also, in data set [1], the “Residence time, Small intestine” value is 2.79E − 01 Bq ∗ h/Bq and the “Residence time, Spleen” value is on record as 1.20E − 02 Bq ∗ h/Bq. In the data set “in vivo”, the tissue to tissue ratio stood at 6.9 ± 0.8, the tissue uptake at 1 h is 1.15 %ID/g, the tissue uptake at 2 h stood at 0.99 %ID/g and the tissue uptake at 18 h came out at 0.76 %ID/g. For the same compound, in data set [2] (%ID/g intestines), the tissue uptake at 1 h stood at 1.6 ± 0.16 %ID/g, the tissue uptake at 2 h is 0.64 ± 0.04 %ID/g and the tissue uptake at 18 h amounted to 0.43 ± 0.04 %ID/g. In data set [2] (%ID/g kidneys), the tissue uptake at 1 h amounted to 2.2 ± 0.11 %ID/g, the tissue uptake at 2 h was 0.97 ± 0.03 %ID/g and the tissue uptake at 18 h was 0.51 ± 0.02 %ID/g. In data set [2] (%ID/g liver), the tissue uptake at 1 h stood at 1.05 ± 0.17 %ID/g, the tissue uptake at 2 h was 0.65 ± 0.04 %ID/g and the tissue uptake at 18 h turned out to be 0.43 ± 0.02 %ID/g. Moreover, in data set [2] (%ID/g spleen), the tissue uptake at 1 h stood at 0.94 ± 0.11 %ID/g, the tissue uptake at 2 h is 0.62 ± 0.04 %ID/g and the tissue uptake at 18 h came out at 0.33 ± 0.02 %ID/g. Moreover, in data set [2] (Mean %ID/g for H727 tumors), the tissue uptake at 2 h was determined as 0.68 ± 0.06 %ID/g and the tissue uptake at 18 h is 0.63 ± 0.04 %ID/g. Further, in data set [2] (Tumor-to-blood ratio), the tissue to tissue ratio at 1 h was determined as 12.7, the tissue to tissue ratio at 2 h turned out to be 37.2 and the tissue to tissue ratio at 18 h came to 20.2. In data set [2] (Tumor-to-intestine ratio), the tissue to tissue ratio at 1 h stood at 0.72 ± 0.08, the tissue to tissue ratio at 2 h stood at 1.06 ± 0.11 and the tissue to tissue ratio at 18 h is 1.53 ± 0.11. Also, in data set [2] (Tumor-to-liver ratio), the tissue to tissue ratio at 1 h was 1.08 ± 0.11, the tissue to tissue ratio at 2 h amounted to 1.03 ± 0.11 and the tissue to tissue ratio at 18 h was 1.54 ± 0.1. Moreover, in data set [2] (Tumor-to-muscle ratio), the tissue to tissue ratio came out at 6.5 ± 0.7, the tissue to tissue ratio at 1 h worked out at 4.99 ± 0.59, the tissue to tissue ratio at 2 h was determined as 7.34 ± 1.16 and the tissue to tissue ratio at 18 h stood at 7.09 ± 0.52. The tissue to tissue ratio at 1 h in data set [2] (1 h p.i., biodistribution, H727 xenograft mice, read-out: Tumor-to-kidney ratio) is 0.51 ± 0.05. For the same compound, the tissue uptake at 1 h in data set [2] (1 h p.i., i.v. 2.0 ± 0.7 MBq, gamma counter, mean ± SEM, read-out: Mean %ID/g for H727 tumors) is 1.15 ± 0.13 %ID/g. Besides, in data set [2] (18 h p.i., biodistribution, H727 xenograft mice, read-out: Tumor-to-kidney ratio), the tissue to tissue ratio at 18 h is 1.2 ± 0.09. Further, in data set [3], the “%ID/g intestines” value is 0.4 %ID/g, the “%ID/g kidneys” value was determined as 0.5 %ID/g and the “%ID/g liver” value was 0.4 %ID/g.

As for ^68Ga-NODAGA-c(RGDfK) (head to tail), the “tumor-to-blood ratio, times higher than ^64Cu-NODAGA-c(RGDfK)” value with U87MG xenograft tumors was 3 times.
